In US5976792 one finds cpm of 125I fibronectin bound to 10^9 CFU data, which are given here for 3 substances.

The target in the assay is 125I-labeled fibronectin. Kind of assay: binding of 125I-labeled fibronectin to whole bacterial cells.

The substance “whole cells of S. aureus ALC561 (ALC136 with pALC561, sar fragment nt 1-1349) (cells without a defined receptor)” had a cpm of 125I fibronectin bound to 10^9 CFU of 19300 cpm.

Substance “whole cells of S. aureus sar mutant ALC136 (isogenic mutant of RN6390 carrying a sar::Tn917LTV1 mutation) (cells without a defined receptor)” had a cpm of 125I fibronectin bound to 10^9 CFU of 2390 cpm.

For the substance “whole cells of S. aureus strain RN6390 (parental strain) (cells without a defined receptor)”, the cpm of 125I fibronectin bound to 10^9 CFU worked out at 3320 cpm.
